Measured values taken from patent US20240124560A1.

Legend:
Assay in all cases: cell-based or functional assay
[1] = biological target: HIV-1 Env of NAC_92BR020 (HIV-1)
[2] = biological target: HIV-1 Env of NAC_JRCSF (HIV-1) (UniProt P20871)
[3] = biological target: HIV-1 Env of NAC_KNH1144 (HIV-1)
[4] = biological target: HIV-1 Env of NAC_REJO.67 (HIV-1)
[5] = biological target: HIV-1 Env of NAC_SS1196.1 (HIV-1)
[6] = biological target: HIV-1 Env of NIH-011_1056.10.TA11.1826 (HIV-1)
[7] = biological target: HIV-1 Env of NIH-014_6244.13.B5.4567 (HIV-1)
[8] = biological target: HIV-1 Env of NIH-015_62357.14.D3.4589 (HIV-1)
[9] = biological target: HIV-1 Env of NIH-018_Du172.17 (HIV-1)
[10] = biological target: HIV-1 Env of NIH-024_ZM53M.PB12 (HIV-1)
[11] = biological target: HIV-1 Env of NIH-029_HIV-001428.2.42 (HIV-1)
[12] = biological target: HIV-1 Env of NIH-040_Ce703010054 2A2 (HIV-1)
[13] = biological target: HIV-1 Env of NIH-052_CNE30 (HIV-1)
[14] = biological target: HIV-1 Env of NIH-065_191955 A11 (HIV-1)
[15] = biological target: HIV-1 Env of NIH-068_620345.c01 (HIV-1)
[16] = biological target: HIV-1 Env of NIH-071_R1166.c01 (HIV-1)
[17] = biological target: HIV-1 Env of NIH-072_R3265.c06 (HIV-1)
[18] = biological target: HIV-1 Env of NIH-078_BJOX015000.11.5 (HIV-1)
[19] = biological target: HIV-1 Env of NIH-103_0815.v3.c3 (HIV-1)
[20] = biological target: HIV-1 Env of NIH-118_T255.34 (HIV-1)
[21] = biological target: HIV-1 Env of pseudovirus NAC_89.6 (HIV-1)
[22] = biological target: HIV-1 Env of pseudovirus NAC_94UG103 (HIV-1)
[23] = biological target: HIV-1 Env of pseudovirus NAC_ADA (HIV-1)
[24] = biological target: HIV-1 Env of pseudovirus NAC_DH12 (HIV-1)
[25] = biological target: HIV-1 Env of pseudovirus NAC_IAVIC22 (HIV-1)
[26] = biological target: HIV-1 Env of pseudovirus NAC_RHPA4.7 (HIV-1)
[27] = biological target: HIV-1 Env of pseudovirus NIH-005_TRO.11 (HIV-1)
[28] = biological target: HIV-1 Env of pseudovirus NIH-006_AC10.0.29 (HIV-1)
[29] = biological target: HIV-1 Env of pseudovirus NIH-007_CAAN5342.A2 (HIV-1)
[30] = biological target: HIV-1 Env of pseudovirus NIH-008_WEAU.d15.410.787 (HIV-1)
[31] = biological target: HIV-1 Env of pseudovirus NIH-027_CAP45.G3 (HIV-1)
[32] = biological target: HIV-1 Env of pseudovirus NIH-039_Ce2060 G9 (HIV-1)
[33] = biological target: HIV-1 Env of pseudovirus NIH-047_Ce704809221 1B3 (HIV-1)
[34] = biological target: HIV-1 Env of pseudovirus NIH-055_CNE58 (HIV-1)
[35] = biological target: HIV-1 Env of pseudovirus NIH-056_Q168ENVa2 (HIV-1)
[36] = biological target: HIV-1 Env of pseudovirus NIH-060_Q769ENVd22 (HIV-1)
[37] = biological target: HIV-1 Env of pseudovirus NIH-063_0330.v4.c3 (HIV-1)
[38] = biological target: HIV-1 Env of pseudovirus NIH-066_191084 B7.19 (HIV-1)
[39] = biological target: HIV-1 Env of pseudovirus NIH-073_C3347.c11 (HIV-1)
[40] = biological target: HIV-1 Env of pseudovirus NIH-074_C4118.c09 (HIV-1)
[41] = biological target: HIV-1 Env of pseudovirus NIH-075_CNE8 (HIV-1)
[42] = biological target: HIV-1 Env of pseudovirus NIH-077_BJOX009000.02.4 (HIV-1)
[43] = biological target: HIV-1 Env of pseudovirus NIH-082_X1193 c1 (clade G) (HIV-1)
[44] = biological target: HIV-1 Env of pseudovirus NIH-098_89.F1 2 25 (clade CD) (HIV-1)
[45] = biological target: HIV-1 Env of pseudovirus NIH-100_6041.v3.c23 (HIV-1)
[46] = biological target: envelope protein of control pseudovirus NAC_AMLV

HIV-1 Env of NAC_JRCSF (HIV-1), sequence (P20871 32-848 limits assumed): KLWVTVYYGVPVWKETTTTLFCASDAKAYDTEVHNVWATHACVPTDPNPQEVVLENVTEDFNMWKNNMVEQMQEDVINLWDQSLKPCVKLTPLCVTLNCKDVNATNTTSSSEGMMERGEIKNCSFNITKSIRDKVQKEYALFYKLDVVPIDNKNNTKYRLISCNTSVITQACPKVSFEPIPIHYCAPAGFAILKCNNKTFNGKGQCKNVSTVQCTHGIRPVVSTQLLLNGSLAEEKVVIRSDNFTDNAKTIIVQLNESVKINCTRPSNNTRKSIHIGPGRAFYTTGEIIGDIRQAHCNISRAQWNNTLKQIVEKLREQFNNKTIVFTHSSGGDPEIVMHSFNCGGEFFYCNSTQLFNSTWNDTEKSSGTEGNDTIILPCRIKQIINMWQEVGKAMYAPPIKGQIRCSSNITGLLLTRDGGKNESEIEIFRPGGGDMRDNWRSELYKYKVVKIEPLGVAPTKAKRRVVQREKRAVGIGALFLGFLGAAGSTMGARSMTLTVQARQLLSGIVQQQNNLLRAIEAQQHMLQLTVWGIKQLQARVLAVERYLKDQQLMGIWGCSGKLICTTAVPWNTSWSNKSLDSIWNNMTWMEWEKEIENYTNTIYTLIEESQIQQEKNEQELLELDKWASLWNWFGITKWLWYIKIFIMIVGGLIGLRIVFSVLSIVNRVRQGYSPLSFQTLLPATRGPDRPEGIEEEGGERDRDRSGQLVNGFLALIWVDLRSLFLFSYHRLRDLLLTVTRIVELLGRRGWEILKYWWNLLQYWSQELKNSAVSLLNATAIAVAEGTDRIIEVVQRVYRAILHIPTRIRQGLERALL

## 4E10 (antibody)
[1]
  IC80 neutralization: 13.5 µg/mL
[2]
  IC80 neutralization: 3.92 µg/mL
[3]
  IC80 neutralization: 47.9 µg/mL
[4]
  IC80 neutralization: 8.62 µg/mL
[5]
  IC80 neutralization: 3.96 µg/mL
[6]
  IC80 neutralization: 2.81 µg/mL
[7]
  IC80 neutralization: 0.373 µg/mL
[8]
  IC80 neutralization: 11.6 µg/mL
[9]
  IC80 neutralization: 0.474 µg/mL
[10]
  IC80 neutralization: 42.6 µg/mL
[11]
  IC80 neutralization: 24.7 µg/mL
[12]
  IC80 neutralization: 12.5 µg/mL
[13]
  IC80 neutralization: 16.6 µg/mL
[14]
  IC80 neutralization: 0.157 µg/mL
[15]
  IC80 neutralization: 3.06 µg/mL
[16]
  IC80 neutralization: 1.77 µg/mL
[17]
  IC80 neutralization: 2 µg/mL
[18]
  IC80 neutralization: 0.647 µg/mL
[19]
  IC80 neutralization: 6.31 µg/mL
[20]
  IC80 neutralization: 1.38 µg/mL
[21]
  neutralization IC50: 2.77 µg/mL
[22]
  neutralization IC50: 1.77 µg/mL
[23]
  neutralization IC50: 0.836 µg/mL
[24]
  neutralization IC50: 1.17 µg/mL
[25]
  neutralization IC50: 1.21 µg/mL
[26]
  neutralization IC50: 4.66 µg/mL
[27]
  neutralization IC50: 0.769 µg/mL
[28]
  neutralization IC50: 0.666 µg/mL
[29]
  neutralization IC50: 2.84 µg/mL
[30]
  neutralization IC50: 0.621 µg/mL
[31]
  neutralization IC50: 0.886 µg/mL
[32]
  neutralization IC50: 1.24 µg/mL
[33]
  neutralization IC50: 0.134 µg/mL
[34]
  neutralization IC50: 0.563 µg/mL
[35]
  neutralization IC50: 3.78 µg/mL
[36]
  neutralization IC50: 1.61 µg/mL
[37]
  neutralization IC50: 0.963 µg/mL
[38]
  neutralization IC50: 1.23 µg/mL
[39]
  neutralization IC50: 0.034 µg/mL
[40]
  neutralization IC50: 0.322 µg/mL
[41]
  neutralization IC50: 0.087 µg/mL
[42]
  neutralization IC50: 0.389 µg/mL
[43]
  IC50 (µg/ml), TZM-bl cell neutralization assay, pseudovirus: 0.359 µg/mL
[44]
  IC50 (µg/ml), TZM-bl cell neutralization assay, pseudovirus: 5.11 µg/mL
[45]
  neutralization IC50: 5.48 µg/mL
[46]
  IC50 (µg/ml), TZM-bl cell neutralization assay, control pseudovirus: > 50 µg/mL
  IC80 (µg/ml), TZM-bl pseudovirus neutralization: > 50 µg/mL
